Assay [1] has as its target T1, CTLA-4 (Homo sapiens, UniProt P16410).
T1 construct: IgG1 Fc (own knowledge: Orencia = abatacept, CTLA4-Ig)
In words: Evaluation of binding after Affinity Maturation selection by ELISA (S/N ratio, Table 5). To be noted: for ELISA MBP-fusion Orencia (absorbance at 450 nm): MBP-fused cyclic peptide, Orencia wells; for ELISA MBP-fusion S/N(SA): ratio of Orencia signal to SA signal, binding = S/N not less than 2. The protocol:
The basic operation of ribosome display was performed in the same manner as described above. Detailed experimental conditions for Affinity Maturation are indicated below. 2 μL of Nanolink streptavidin magnetic beads (SoluLink) were used as magnetic beads to immobilize the antigen, and 1 mL of CTLA-4 protein solution (1 μM) was used as a wash solution. The amount of biotinylated CTLA-4 immobilized on the magnetic beads was 10 pmol in the 1st round, 2 pmol in the 2nd round, and 1 pmol in the 3rd round, respectively. The washing period was 2 hours for the 1st round, 19 hours for the 2nd round, and 67 hours for the 3rd round. The number of wash cycle was one time (2 hours) in the 1st round, two times (about every 10 hours) in the […], and six times (about every 10 hours) in the 3rd round. After each round of RT-PCR, Error-Prone PCR was performed in the same manner as described above.
(§1) After each round of Affinity Maturation, the cyclic peptide genes were recovered and subcloned into pET-Mal vector (FIG. 2) in the same manner as described above to perform base sequence analysis. For the 94 single colonies analyzed for sequence, E. coli transformants were inoculated into 100 μL of 2×YT medium containing ampicillin (final concentration 50 μg/mL), incubated at 37° C. for 3-5 hours (OD600=0.5-0.8), then added with IPTG (final concentration 0.5 mM) and incubated at 25° C. overnight. 10 μL of E. coli cultured medium was added with 90 μL of PBS and 40 μL of lysis reagent (20 μL BugBuster Protein Extraction Reagent (Novagen), 20 μL Lysozyme solution 2.5 mg/mL) to lyse E. coli cells for 1 hour at room temperature. The cell lysate was added with 40 μL of 12.5% skim milk solution (TBST) and blocked for 1 hour at room temperature. In parallel, antigen protein was immobilized overnight at 4° C. in 384-well plates at 100 ng/20 μL per well, and each well was washed twice with 100 μL/well of TBST, added with 100 μL/well of 5% skim milk solution (TBST) for blocking for 1 hour at room temperature, and washed twice with 100 μL/well of TBST to obtain antigen-immobilized plates. 20 μL/well of blocking-treated E. coli extract was added to the antigen-immobilized plates and gently stirred at room temperature using a plate mixer. After 1 hour, the plates were washed 5 times with 100 μL/well of TBST, 20 μL/well of anti-FLAG M2-HRP conjugate (1:2000 dilution, Sigma) was added and gently stirred on a plate mixer for 1 hour at room temperature. The plates were washed 5 times with 100 μL/well of TBST, and binding of cyclic peptides to the antigen was detected by 20 μL/well of chromogenic substrate (0.4 mg/mL 3,3′,5,5′-Tetramethyl-benzidine, 0.01% hydrogen peroxide). After 15 minutes of reaction at room temperature, the reaction was stopped with 20 μL/well of 2N HCl, and absorbance at 450 nm was measured using a plate reader (infinite F200: TECAN) (Table 5).
T1 sequence (P16410 with tags, fused parts or gaps limits assumed): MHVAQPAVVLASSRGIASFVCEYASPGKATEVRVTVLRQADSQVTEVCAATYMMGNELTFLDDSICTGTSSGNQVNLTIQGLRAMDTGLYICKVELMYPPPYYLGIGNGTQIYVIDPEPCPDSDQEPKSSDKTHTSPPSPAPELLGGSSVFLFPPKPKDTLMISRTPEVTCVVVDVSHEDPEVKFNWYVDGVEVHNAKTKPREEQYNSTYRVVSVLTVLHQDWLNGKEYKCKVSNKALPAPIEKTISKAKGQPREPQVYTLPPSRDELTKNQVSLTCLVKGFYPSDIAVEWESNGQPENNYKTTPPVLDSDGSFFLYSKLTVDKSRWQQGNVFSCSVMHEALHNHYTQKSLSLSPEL
On the technique in general: An ELISA detects its analyte on a solid surface through an enzyme-linked reagent.

In assay [2] the target is T2, CTLA-4 (Homo sapiens, UniProt P16410).
T2 sequence (P16410 36-223): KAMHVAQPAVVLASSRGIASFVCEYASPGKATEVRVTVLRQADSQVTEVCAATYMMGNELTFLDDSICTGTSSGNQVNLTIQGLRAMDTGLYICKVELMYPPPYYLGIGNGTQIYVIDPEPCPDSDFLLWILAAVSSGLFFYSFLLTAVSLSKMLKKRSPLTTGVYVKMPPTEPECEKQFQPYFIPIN
In words: Affinity measurement of CTLA-4 binding clones after Affinity Maturation (EC50 by ELISA, Table 6). To be noted: for CTLA-4 affinity improved over the original clone: EC50 by ELISA, MBP fusion cyclic peptides; for EC50: N-terminal MBP fusion protein of the CTLA-4 binding clone, EC50 calculated from ELISA binding curve. The protocol: For each of the CTLA-4 binding clones obtained by Affinity Maturation, purified N-terminal MBP fusion protein solution (400 μg/mL) was prepared and samples serially 2-fold diluted with PBS were prepared. CTLA-4 was immobilized overnight at 4° C. in 384-well plates at 100 ng/20 μL per well, and each well was washed twice with 100 μL/well of TBST, added with 100 μL/well of 5% skim milk solution (TBST) for blocking for 1 hour at room temperature, and washed twice with 100 μL/well of TBST to obtain antigen-immobilized plates. 20 μL/well of serially-diluted N-terminal MBP fusion protein solution was added to the antigen-immobilized plates and gently stirred at room temperature using a plate mixer. After 1 hour, the plates were washed 5 times with 100 μL/well of TBST, 20 μL/well of anti-FLAG M2-HRP conjugate (1:2000 dilution, Sigma) was added and gently stirred on a plate mixer for 1 hour at room temperature. Further, the plates were washed 5 times with 100 μL/well of TBST, and binding of N-terminal MBP fusion proteins to the antigen was detected by 20 μL/well of chromogenic substrate (0.4 mg/mL 3,3′,5,5′-Tetramethyl-benzidine, 0.01% hydrogen peroxide). After 15 minutes of reaction at room temperature, the reaction was stopped with 20 μL/well of 2N HCl, and absorbance at 450 nm was measured using a plate reader (infinite F200: TECAN). The graph was plotted with the vertical axis as the absorbance of ELISA and the horizontal axis as the concentration of N-terminal MBP fusion protein of the CTLA4-binding clones (FIG. 5), and the EC50 was calculated from the obtained binding curve (Table 6).

For a further assay, the target named is SA (Streptomyces avidinii, UniProt P22629). In words: ELISA background signal of MBP-fused cyclic peptides on SA wells (Table 5). It counts as binding. The settings on record: MBP-fused cyclic peptide. How it is done:
as §1
An Error-Prone Library was prepared based on H12SSI-Ctla4-3-02, and Affinity Maturation selection experiments were performed. […]

Assay [3] addresses T3, CTLA-4-Fc (Recombinant Human CTLA4-Fc chimera) versus Human Fc (Homo sapiens, UniProt P16410).
T3 construct: purchased R&D systems
Description: Ribosome display pull down assay of enriched clones. It counts as binding. The settings on record: CTLA-4 Fc versus Human Fc. How it is done:
(§2) CTLA-4 protein (Recombinant Human CTLA4-Fc chimera: R&D systems) was biotinylated according to the standard protocol for EZ-Link NHS-PEO12-Biotin (PIERCE). Biotinylation of CTLA-4 protein was confirmed mobility shift of the band in SDS-PAGE. The concentration of biotinylated CTLA-4 protein was measured by using BCA Protein Assay Kit (PIERCE)
Dynabeads MyOne Streptavidin T1 magnetic beads (100 μL slurry, Invitrogen) pre-blocked overnight with 5% SuperBlock at 4° C. was trapped with MagneSphere Magnetic Separation Stand (Promega) and washed twice with 500 μL of wash buffer solution. 100 pmol of biotinylated antigen protein was added and immobilized on the magnetic beads at 4° C. After 60 min, the magnetic beads were trapped with MagneSphere Magnetic Separation Stand (Promega) and washed 3 times with 500 μL of wash buffer solution. The recovered magnetic beads were added with post-translation reaction solution containing ribosome display complexes (peptide-ribosome-mRNA complexes) and stirred with rotation at 4° C. for 1 hr. A supernatant was discarded by MagneSphere Magnetic Separation Stand (Promega), and the recover magnetic beads were added with 1 mL of wash buffer solution and stirred with rotation at 4° C. for 5 min. […] A part of purified mRNA was reacted with RNA-direct SYBR Green Realtime PCR Master Mix (TOYOBO) and quantified by using Light Cycler 480 (Roche).

The target of assay [4] is T4, CTLA-4 protein (Recombinant Human CTLA4-Fc chimera) (Homo sapiens, UniProt P16410).
T4 construct: purchased R&D systems
Description: Affinity measurement of MBP fusion clone by BLItz system (biotinylated CTLA-4 on SA sensor chip). Format: binding. The protocol:
as §2
E. coli transformants were inoculated into 200 mL of 2×YT medium containing ampicillin (final concentration 50 μg/mL), incubated at 37° C. for 3-5 hours (OD600=0.5-0.8), and then added with IPTG (final concentration 0.5 mM) and incubated at 25° C. overnight. The grown E. coli cells were collected by centrifugation, resuspended in 60 mL of lysis buffer (20 mM Tris HCl pH 7.5, 500 mM NaCl), and disrupted by a sonicator (Bioruptor UCD-250). The disrupted cell suspension was centrifuged, the supernatant was collected, filtered through a 0.22 μm filter, and subjected to affinity purification by MBPTrap (GE Healthcare). The purified protein solution was subjected to a buffer exchange into PBS by a dialysis membrane. Purity was confirmed by SDS-PAGE and protein concentration was determined using the BCA Protein Assay Kit (PIERCE).
The affinity of the purified CTLA-4 binding clone (H12SSI-Ctla4-3-02) to CTLA-4 was measured using BLItz system (forte Bio). All operations were performed according to the instruction manual of the BLItz system. The biotinylated CTLA-4 protein was immobilized on the SA sensor chip via streptavidin.

Assay [5] addresses T5, binding of CTLA-4 to CD80 (Homo sapiens, UniProt P16410).
T5 construct: purchased BPS Biosciences
T5 sequence (P16410 37-162 limits assumed): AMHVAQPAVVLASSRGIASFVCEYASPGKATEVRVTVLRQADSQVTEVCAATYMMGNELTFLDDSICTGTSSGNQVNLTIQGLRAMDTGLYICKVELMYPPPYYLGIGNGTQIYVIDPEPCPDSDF
In words: CTLA4:B7-1[Biotinylated] Inhibitor Screening Assay Kit (IC50 measurement). Format: biochemical. The text has this: IC50 can be determined by using, for example, competitive ELISA, surface plasmon resonance (BIAcore (trademark)) analysis or the like. IC50 value for the cyclic peptide of the present invention with respect to its inhibition of binding between human CTLA-4 and human CD80 is preferably measured by CTLA4:B7-1 [Biotinylated] Inhibitor Screening Assay Kit (BPS Bioscience) according to the Example below.
Among the clones obtained in the Affinity Maturation selection experiment, clone #19 ([…]) (SEQ ID NO: 22), which has high affinity to CTLA-4 in EC50 measurement, was measured for its activity to inhibit binding of CTLA-4 to CD80. The measurement of inhibitory activity was performed using the CTLA4:B7-1[Biotinylated] Inhibitor Screening Assay Kit (BPS Biosciences). The experiment was performed according to the standard protocol attached to the kit.
In addition, peptides with glycine added to the N-terminus (Gly-clone #19: […] (SEQ ID NO: 26)/Gly-H12SSI-Ctla4-3-02: […] (SEQ ID NO: 25)) were chemically synthesized for the measurement of inhibitory activity. Inhibitory activity was measured using the CTLA4:B7-1 [Biotinylated] Inhibitor Screening Assay Kit (BPS Biosciences) as described above.

The target of assay [6] is T2, CTLA-4. Description: Affinity measurement of synthetic biotinylated peptides by BLItz system (peptide on SA sensor chip). It counts as binding. To be noted: synthetic Biotin-PEG4-Lys peptide immobilized, BLItz. The protocol:
Affinity for CTLA-4 was measured using the BLItz system (forte Bio). All operations were performed according to the instruction manual of the BLItz system. The biotinylated peptides were immobilized on the SA sensor chip via streptavidin.

Assay [7] concerns the target T2, CTLA-4. In words: Alanine scanning of clone #10, binding evaluated by ELISA. The settings on record: mutants of clone #10. How it is done:
After each round of Affinity Maturation, the cyclic peptide genes were recovered and subcloned into pET-Mal vector (FIG. 2) in the same manner as described above to perform base sequence analysis. For the 94 single colonies analyzed for sequence, E. coli transformants were inoculated into 100 μL of 2×YT medium containing ampicillin (final concentration 50 μg/mL), incubated at 37° C. for 3-5 hours (OD600=0.5-0.8), then added with IPTG (final concentration 0.5 mM) and incubated at 25° C. overnight. […] The plates were washed 5 times with 100 μL/well of TBST, and binding of cyclic peptides to the antigen was detected by 20 μL/well of chromogenic substrate (0.4 mg/mL 3,3′,5,5′-Tetramethyl-benzidine, 0.01% hydrogen peroxide). After 15 minutes of reaction at room temperature, the reaction was stopped with 20 μL/well of 2N HCl, and absorbance at 450 nm was measured using a plate reader (infinite F200: TECAN) (Table 5).
Using the CTLA-4 binding clone #10 ([…]) (SEQ ID NO: 27), which had high affinity, as the original clone, a series of oligo DNAs encoding mutants in which any one amino acid residue except cysteine was sequentially replaced with alanine were synthesized and each oligo DNA was subcloned into pET-Mal vector (FIG. 2), and the binding activity of the alanine substitution mutants to CTLA-4 was evaluated by ELISA as described above.

Bridges are numbered along the chain shown (N, C = ends). Where no end group is shown, it is not given here.

T4 sequence (P16410 with tags, fused parts or gaps limits assumed): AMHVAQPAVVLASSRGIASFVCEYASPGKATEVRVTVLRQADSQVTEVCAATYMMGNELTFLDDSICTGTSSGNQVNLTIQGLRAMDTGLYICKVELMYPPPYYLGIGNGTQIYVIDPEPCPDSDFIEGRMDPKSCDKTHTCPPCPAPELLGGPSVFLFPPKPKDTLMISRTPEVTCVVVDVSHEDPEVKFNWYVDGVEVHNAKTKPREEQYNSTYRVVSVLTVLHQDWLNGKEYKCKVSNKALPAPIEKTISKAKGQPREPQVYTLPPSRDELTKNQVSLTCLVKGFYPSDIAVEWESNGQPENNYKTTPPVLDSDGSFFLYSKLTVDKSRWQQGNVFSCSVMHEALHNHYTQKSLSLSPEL
Chain of SA (P22629 25-183): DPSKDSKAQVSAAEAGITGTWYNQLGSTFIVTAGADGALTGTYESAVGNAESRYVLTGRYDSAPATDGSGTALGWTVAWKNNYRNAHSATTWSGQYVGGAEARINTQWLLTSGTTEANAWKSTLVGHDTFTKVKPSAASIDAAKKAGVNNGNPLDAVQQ

Consider “CLHPFLPIVSHHFCGR (cysteine pairing not given here; also: MBP fusion) [#10]”, for which, in the assay with CTLA-4 [1], the “ELISA MBP-fusion Orencia (absorbance at 450 nm)” value (“ELISA MBP-fusion Orencia” for short) is given as 1.1444 and the “ELISA MBP-fusion S/N(SA)” value was 18.5. In the assay with CTLA-4 [2], the “CTLA-4 affinity improved over the original clone” value was “about 50 fold” and the EC50 (in general, the concentration that produces a half-maximal response) was 0.082 µM. Also, in the assay with SA, the “ELISA MBP-fusion SA (absorbance at 450 nm)” value (shortened to “ELISA MBP-fusion SA”) is 0.0617.
Consider “CMHPFLLVVSHHFC (disulfide 1-14 (inferred); not fully specified (N-terminus)) [H12SSI-Ctla4-3-02]”, for which the “binding specificity in ribosome display pull down assay” value in assay [3] is reported as “bound specifically to CTLA-4”. In addition, in assay [4], the Kd (in general, a measure of binding affinity in units of concentration) is 3.88 µM; the ka was found to be 3180 M⁻¹ s⁻¹; the kd is 0.0123 s⁻¹. For the same substance, in the assay with CTLA-4 [1], the “ELISA MBP-fusion Orencia” value is on record as 0.2278 and the “ELISA MBP-fusion S/N(SA)” value worked out at 4.3. Also, the “ELISA MBP-fusion SA” value with SA amounted to 0.0536.
Consider CMHPFLPIVSHHFCER [#19], for which, on CTLA-4 [1], the “ELISA MBP-fusion Orencia” value was 1.0658 and the “ELISA MBP-fusion S/N(SA)” value was found to be 18.0. On CTLA-4 [2], the “CTLA-4 affinity improved over the original clone” value is on record as “about 50 fold” and the EC50 is 0.075 µM. In addition, in assay [5] (MBP fusion protein), the IC50 (as a rule, the concentration that inhibits the measured activity by half) came to 1.36 µM. Moreover, the IC50 in assay [5] (synthesized peptide with N-terminal glycine) turned out to be 11.5 µM. Also, on CTLA-4 [6], the ka is 208000 M⁻¹ s⁻¹ and the kd was 0.0128 s⁻¹. Further, on CTLA-4 [6] (unit inferred), the Kd was 0.0618 µM. For the same substance, the “ELISA MBP-fusion SA” value on SA was 0.0591.
For “I7A mutant: alanine substitution mutant of clone #10 with isoleucine at position 7 replaced (CLHPFLPAVSHHFCGR; not fully specified (bridges); cysteine pairing not given here; also: MBP fusion)”, the “binding activity of alanine substitution mutant to CTLA-4” value with CTLA-4 [7] was “weak binding activity”.
